In paper doi:10.1101/2020.09.25.312835 (bioRxiv, 2020):

Target: the molecule itself
Assay: cross-linking

B1: C-terminal fragment of bovine ROS-GC1 comprising the αHD and CD (aa 814-1110) (domain or fragment, UniProt P55203 814-1110, looked up)
chain: NKGRKMNIIDSMLRMLEQYSSNLEDLIRERTEELELEKQKTDRLLTQMLPPSVAEALKMGTPVEPEYFEEVTLYFSDIVGFTTISAMSEPIEVVDLLNDLYTLFDAIIGSHDVYKVETIGDAYMVASGLPQRNGHRHAAEIANMALDILSAVGTFRMRHMPEVPVRIRIGLHSGPCVAGVVGLTMPRYCLFGDTVNTASAMESTGLPYRIHVNRSTVQILSALNEGFLTEVRGRTELKGKGAEETYWLVGRRGFNKPIPKPPDLQPGASNHGISLHEIPPDRRQKLEKARPGQFSGK
- binding result: binds
